# Results: the nanobody polyreactivity screen of Harvey et al. (2022)
# Assay: yeast display, Sf9 membrane polyspecificity reagent, FACS + sequencing; frameworks hold sequencing errors
# Method in brief: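 Sorting gates, low and high (top ~1%), were placed on anti-HA fluorescence to track expression and on streptavidin fluorescence to track reagent binding. A clone's polyreactivity label is taken from the gate it came out of. The reagent was 10% biotinylated, detergent-solubilized Sf9 membrane, applied for 1 hour at 4 °C to galactose-induced yeast display cells.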
row,Sequence,polyreactivity (PSR sort gate)
1,QVQLVESGGGLVQAGGSLRLSCAASGSIFIFNAMGWYRQAPGKEREFVARIRRDSSTYYADSVKGRFTISRDNAKNTVYLQMNSLKPEDTAVYYCADKRVYRRVELNSWGQGTQVTVSS,low polyreactivity
2,HVQLEDSGGGLVQAGGRLRITCAASGRSSETNDMGWYRQAPGKERELVAAISSSGGSTYYADSVKGRFTISRDNAKNTVYLQMNSLQPEDTAVYYCYAVYYRTVLKIGVYEYDYWGQGTQVTVSS,low polyreactivity
3,QVQLVESGGGLVQAGGSLRLSCAASGSTFVPYAMGWYRQAPGKERELVAAITWSGGDSTYYADSVKGRFTISRDNAKNTVYLQMNSLKPEDTAVYYCAASYLGRKYDYWGQGTQVTVSS,high polyreactivity
4,QVQLVESGGGLVQAGGSLRLSCAASGRIFVYNVMGWYRQAPGKERELVAAISWGTGSTYADSVKGRFTISRDNAKNTVYLQMNSLKPEDTAVYYCAADSFIPPYDHWGQGTQVTVSS,low polyreactivity
5,QVQLVESGGGLVQAGGSLRLSCAASGSTFTVNGMGWYRQAPGKERELVASITWSGGSTYYADSVKGRFTISRDNAKNTVYLQMNSLNPEDTAVYYCAADEKLYITGYDYWVQGTQVTVSS,low polyreactivity
6,QVQLVESGGGLVQARGSLRLSCAASGSIFPNYAMGWYRQAPGKERELVAAISSSGGRTYYADSVKGRFTSSRDNAKNTVYLQMNRLKPEDTAVYYCAVRGYWGEGTQVTVSS,low polyreactivity
7,QVQLVESGGGLVQAGGSLRLICSASGLISRINAMGWYRQAPGKERELVAAISSGGSTNYADSVKGRFTISRDNAKNTVYLQMNSLKPEDTAVYYCAAEVFRVAWYDYWGQGTQVTVSS,high polyreactivity
8,QVQLVESGGGLVQAGGSLRLSCAASGLTFYRYAMGWYRQAPGKERELVAAIRVSGNTYYADSVKGRFTISRDNAKNTVYLQMNSLKPEDTAVFYCAAIPYYFYGMDYWGQGTQVTVSS,high polyreactivity
9,QVQLVESGGGLVQAGGSLRLSCAPSGRIFVLYTMGWYRQAPGKERELVAAIRGGGSTNYADSVKGRFTISRDNAKNTVYLQMNSLKPEDTAVSYCAARYYREYDYWGQGTQVTVSS,high polyreactivity
10,QVQLVESGGGLVQAGGSLRLSCAASGRIFGTNAMGWYRQAPGKESELVATITRGGGNTYYADSVKGRFTISRDNAKNTVYLQMNSLKQEDTAVYYCNTRRLHGWLYGYEYWGQGTQVTVSS,low polyreactivity
11,QVQLVESGGGLVQAGGSLRLSFAASGFTFYPYTKGWYRQAPGKEREFVAAISWNCGSTYYADSVKGRFTISRDNAKHTVYLQMNRLKPEDTAVYYCAADFDASRYEYWGQGTQVTVSS,low polyreactivity
12,QVQLVESGGGLVQAGGSLRLSCAASGGTFGTYAMGWYRQAPGKERELVAAITYRGGRTYYADSVKGRFTISRDNAKYTVYLQLDCVKPEDSAVYYCAKDVRGHRHPYSLRDYWGEGTQVTVSS,high polyreactivity
13,QVQLVESGGGLVQAGGSLRLSCAASGSIFIYYAMGWYRQAPGKEMELVAAISSSGGSTYYADSVKGRFTISRDNAKNTVYLQMNSLKPEDTAVYYCAAAYGGRLRYTAGYYWGQGTQVTVSS,high polyreactivity
14,QVLLVESGGGLVQAGGILRLSCAASGRILPFNAMGWYRQAPGKAREFVAANSRVSGRTYYADSVKGRFTISRDNAKNTVYLQMNSLKPEDTAVYYCATDTYSYGYEYWGQGTHVTVSS,high polyreactivity
15,QVQLVESGGGLVQAGGSLRLSCAASGFTIAPDAMGWYRPAPGKERELVADISYSGGSKYYADSVKGRFTISRDTAKNTVYLQMNSLKPEDTAVYYCNAVIWWYWGRSYAYNYWGQGTQVTVSS,high polyreactivity
16,QVQLVESGGGLVQAGGSLRLSSAASGIFWNYAMGWYRQAPGKERELVAAISGSGGSTYYADSVKGRFTISRDNAKNTVYLQINSLKPEDTAVYYCAAEPGNHIWIYDYWGQGTQVTVSS,low polyreactivity

row,Sequence,polyreactivity (PSR sort gate)
1,QVQLVESGGGLVQAGGSLRLSCAASGGTFRGYTMGWYRPAPGKERELVAAITRIGGSTYYADSVKGRFTISRDNAKYTVYLQMNSLKPEDTAVYYCAARGGVPYSNAYDFWGQGTQVTVSS,low polyreactivity
2,QVQLVESGGGLVHAGGSLRLSCAASGRIFVRNDMGCYRQAPGKERELVAAISWDGGSTYYADSVKGRFTISRDNAKNTVYLQMNSLKPEDTAVYYCATDATRPWYDYWGQGTQVTVSS,low polyreactivity
3,QVQLVESGGGLVQAGGSLRLSCAASGSIFLIYAMGWYRQAPGKERELVAAISSGGSTYYADSVKGRFTISRDNAKNTVYLQMNSLKPEDTAVYYCAARYVERHTDYYYWGQGTQVTVSS,low polyreactivity
4,QVQLVESGGGLDQARGSLRLSCAASGSTFKRKPLGWYRQATGKERELVAAITQSGGSTYYADSVKGRFTISRDNAKNTVYLLMYSLKPEDTSVYYCAASYLRGRRYEYWGQGTQVTVSS,high polyreactivity
5,QVHLVDSCGALVQAGGSLSIRCAASGLTIYRYAKGWNRQEPRKETEVVAAISSADRTYYADSVKGRFTISRDNAKNTVYLQMNSLKPEDTAVYYCAARANYFGWTKSYYYWGQGTQVTVSS,high polyreactivity
6,QVQLVESGGGLVQAGGSLRLSCAASGRTFRWYAMGWYRQAPGKERELVAAIRSGGRTYYADSVKGRFTISRDNAKNTVYLQMNSLKPEDTAVYYCAALAVTYRYDYWGQGTQVTVSS,high polyreactivity
7,QVQLVESGGGLVQAGGRLRLSCAASGITFYSYAMGRYRQAPGKERELVAAISTTVGSTYYADYVKGRFTISRDNPNNTVYLQMNSLKPEDTAVYYCNSYSVYAWIEYNYWGQGTQVTVSS,low polyreactivity
8,QVQLVESGGGLVQAGGSLRLSCAASGSIFRINAMGWYRQAPGKERELVAAITRSGGSTFYADSVKGRFTISRDNAKNTVYLQMNSLKPEDTAVYYCAAVWYYSTVPARYEYWGQGTQVTVSS,low polyreactivity
9,QVQLVESGGGLVQAGGSLRLSCAASGFIFDPYAMGWYRQAPGKERELVAAISRGGSTYYADSVKGRFTISRDNAKNIVYLQMNSLKPEDTAVYYCAAVFKFTREYSTGIRYYYWGQGTQVTVSS,high polyreactivity
10,QVQLVESGGGLVQAGGSLRLSCAASGFIFSSYAMGWYRQAPGKERELVAAISRSGGRTNYADSVKGRFTISRDNAKNTVYLQMNSLKPEDTAVYYCAAGRWWVYRYARYYYWGQGTQVTVSS,high polyreactivity
11,QVQLVESGGGLVQAGGSLRLSCAAYGFIFKKYAMGWYRQAPGKERELVAAISGSSTRTYYADSVKGRFTISRDNAKKTVYLQMHSLKPEDTAVYYCVGRFYERDYWGQGTQVTVSS,high polyreactivity
12,QVQLVESGGGLVQAGGSLRLSCAASGFIFGYYAMGWYRQAPGKERELVAAISSRGGSTYYADSVKGRFTISRDNAKNTVYLQMNSLKPEDTAVYYCAVRRVSFRHKFGQYDYWGQGTQVTVSS,high polyreactivity
13,QVQLVESGGGLVQAGGSLRLSCAASGSTFTRYVMGWYRQAPGKERELVAAISKRGGSTYYADSVKGRFTISRDNAKHTVYLQMNSLKPVDPAVYYCNRVSRAPFDYWGQGTQVTVSS,high polyreactivity
14,QVQLVESAGGLVQAGGSLRLSCAASGSTFLIYALGCYRHAPGKERELVAAITVSGGDTYYADSVKGRFTISRDNAKNTVYLQMNSLKPEDTAVYYCAAEGGNDYSSVDAGISYDYWGQGTKVTVSS,low polyreactivity
15,QVQLVESGGGLVQAGGSLRLSCAASGRIFAYYAMGWYRQAPGKERELVAAISRSGGSTYYADSVKGRFTISRDNAKNTVYLLMNSLKPEDTAVYYCNVVRVRYYWWEFDYWGQGTQVTVSS,high polyreactivity
16,QVQLVESGGVLVQAGGSLRLRCAASVRNYNSYMGWYRPAPGKERELVAAISWSSGTSTYYADSVKGRFTISRDNAKNTVYLQMNSLKPEDTEVYYCNAVDYFGPYPEEYDYWGQGTQVTVSS,low polyreactivity
